Consider five molecules from US5736356A, “Transglutaminase originating from Crassostrea gigas” (Ajinomoto Co., Inc., priority 1994, dated 1998).

Data set [1] concerns the target dimethylated casein.
Data set [2] deals with dimethylated casein. The source holds these as a separate data set.
The target in data set [3] is dimethylated casein. This is another data set of the same source.
Data set [4] has as its system dimethylated casein and monodansylcadaverine. The experiment in a line: Effect of NaCl and Ca2+ on enzyme activity. Format: biochemical.
Data set [5] deals with casein. The experiment in a line: Control of gelation of casein solution by NaCl and CaCl2. It counts as biochemical. Set-up: key to degree of gelation: -: the solution was still in the solution state; ±: the solution was a high viscosity product; +: the solution was a gelated product. The method, then:
To an aqueous solution of casein (available from Sigma Company) having a protein concentration of 1% by weight, there was added NaCl in such an amount that the concentration thereof was 0, 0.1 or 0.3M, while variously changing the calcium chloride concentration within the range of from 0 to 200 mM to thus investigate the gelation of the protein. In this connection, the purified transglutaminase was added in an amount corresponding to 4.0 units per 1 mg of the protein. After carrying out the reaction at 37° C. for 90 minutes, the degree of gelation was evaluated.

In data set [6] the test system is dimethylated casein and monodansylcadaverine. In words: Transglutaminase activity of purification fractions (monodansylcadaverine incorporation into dimethylated casein, fluorescence). It counts as biochemical. Here is the method: The activity of the transglutaminase is determined by reacting the enzyme with dimethylated casein and monodansylcadaverine as substrates and measuring an increase in the fluorescent intensity of casein due to the incorporation of monodansylcadaverine into the dimethylated casein. The composition of the reaction solution is as follows:
To 2.4 ml of the foregoing reaction solution, there is added 20 to 50 μl of the transglutaminase solution followed by carrying out the reaction at 37° C. for 30 min, terminating the reaction by addition of 100 μl of a 500 mM EDTA solution and then determining the fluorescent intensity of the reaction solution (using a device: RF-1500 available from Shimadzu Corporation; excitation wavelength: 350 nm; wavelength of emitted fluorescent rays: 480 nm). In respect of the unit of the activity, that required for increasing the fluorescent intensity by 1.0 within one minute is herein defined to be one unit.
Thus, the purified transglutaminase originating from Crassostrea gigas was obtained.

“TGase originated from Cavia porcellus (available from Takara Co., Ltd.) (from UniProt P08587) (enzyme)”: the Increase in Fluorescent Intensity/Cultivation Temp. (increase in fluorescent intensity) in data set [1] is 4.3.

For “fusion protein of β-galactosidase and the TGase of Crassostrea gigas expressed by plasmid pCGTG4E (enzyme)”, the Increase in Fluorescent Intensity/Cultivation Temp. (increase in fluorescent intensity) in data set [1] stood at 12.8.

In data set [2], “recombinant type transglutaminase of Crassostrea gigas expressed in Saccharomyces cerevisiae INVSC2/pCGTG4S (enzyme)” gave an Increase in Fluorescent Intensity (increase in fluorescent intensity) of 46.6.

As to “transglutaminase originating from Crassostrea gigas (purified from natural Crassostrea gigas) (enzyme)”, the Specific Activity (unit/mg): incorporation of monodansylcadaverine into dimethylated casein, fluorescence in data set [3] came out at 1400 unit/mg.

B1: purified transglutaminase: transglutaminase isolated and purified from Crassostrea gigas (Japanese oyster); Mono-Q active fraction (protein)
chain: AFWGVFYTIYSGIRRIAGQPPEEDTSDKEQKRSRTKKALGSEEEEGRISSLSDEDLRARNKVLEPKDEPSATLNVSSVDCQTKLNRKNHHTNEFEKAGNIYRRGQAFVIRVEFDREVNSDHDVILLQFTYGSRPQESKGTVIRIPLDLKPTTKTSDVTETWFAEVKNIAGKGLECAITSAPDSSIGEYRFYIETNLKDTDAVKRYEENESMIILFNAWAKEDTVYMDKEGERGEYVLNETGRVWTSRTWYGRPWNFGQFDDPVLDVALQLLLEGGLSDVACTSPVSVIRCLSSLCNSCDNNGVLAGRWTKEYPKDCTVPWKWTGSVAIIKEYHTNGNKPVRYGQCWVFSGLLTTMCRCLGIPTRSVTNFDSAHDTDSSMTIDSHWDEDGEPLEDMNDSVWNFHVWNESWFRRLDLPEGYDGWQAHDATPQEASEGIMRCGPAPLTAIKEGHVYLNFDIPFVFGEVNGDRVQWVVKKDGTMEVSQIDHSAVGHYISTKRMGSNDREDVTNLYKYPDGSEQERRVAKFVNRYSTRRKQNIYKLDTTKVLKFTVSPPDNTLIGDDMEIKVAVKNTADGPLKLHLTVSLVNAYYTGVAGSRVKTQTFEETIKAKDEKIVTMPVKGTEYHDGMNPEGRFQLYISGKNIDSGSMESTQISFVLKKPQLVIQVPQTIEAKEETEATIVFKNTTQLVLTQAEIAVEGSGLLAPQTIDISSPIKPGDEVKKTVVLRPRKPYYWGRELIATFTSKQIVDIETSADIKVIRQNKDNDSDSD
In the case of B1, in data set [4], the “effect of addition of KCl on enzyme activity (in words)” value was “improved”. Further, in data set [4], the “maximum activity in the presence of NaCl relative to that in the absence” value is recorded as “about 2 times”. The figures for the “Ca2+ concentration at which the activity reached the highest level” value in data set [4] (in the absence of NaCl) and in data set [4] (in the presence of NaCl (0.5M)) were “about 100 mM” and “about 10 mM”, respectively. For the same molecule, the “effect of NaCl concentration on enzyme activity (in words)” value in data set [4] (increasing NaCl concentration) was “increased as the NaCl concentration increased”. Also, the degree of gelation entry in data set [5] (NaCl 0 M, CaCl2 0 mM, 1% casein, 4.0 units/mg, 37° C. 90 min) was “-”; in data set [5] (NaCl 0 M, CaCl2 10 mM), “-”; in data set [5] (NaCl 0 M, CaCl2 25 mM), “-”; in data set [5] (NaCl 0 M, CaCl2 50 mM) it was “±”; in data set [5] (NaCl 0 M, CaCl2 100 mM) it was “+”; in data set [5] (NaCl 0 M, CaCl2 200 mM) it was “+”. The degree of gelation entry is “-” in data set [5] (NaCl 0.1 M, CaCl2 0 mM); “-” in data set [5] (NaCl 0.1 M, CaCl2 10 mM); “±” in data set [5] (NaCl 0.1 M, CaCl2 25 mM); “+” in data set [5] (NaCl 0.1 M, CaCl2 50 mM); “+” in data set [5] (NaCl 0.1 M, CaCl2 100 mM); “±” in data set [5] (NaCl 0.1 M, CaCl2 200 mM). The degree of gelation result in data set [5] (NaCl 0.3 M, CaCl2 0 mM) is “-”; in data set [5] (NaCl 0.3 M, CaCl2 10 mM) it was “±”; in data set [5] (NaCl 0.3 M, CaCl2 25 mM), “+”; in data set [5] (NaCl 0.3 M, CaCl2 50 mM), “+”; in data set [5] (NaCl 0.3 M, CaCl2 100 mM), “+”; in data set [5] (NaCl 0.3 M, CaCl2 200 mM), “+”. Also, the “Ca2+ concentration at which the casein solution underwent gelation” value is “not less than 25 mM” in data set [5] (NaCl 0.3M) and “not less than 100 mM” in data set [5] (free of NaCl). Also, the specific activity in data set [6] (Mono-Q active fraction) is recorded as 1404 units/mg protein; in data set [6] (purification step, Table 1) it was 1404 unit/mg. In addition, the total activity was found to be 358 units in data set [6] (Mono-Q active fraction) and 368 unit in data set [6] (purification step, Table 1). Besides, the “specific activity relative to that of the crude extract” value in data set [6] (purified solution vs crude extract) is recorded as “about 250 times”.
